Data on one protein can be found in PMC9040739, “Entamoeba histolytica EHD1 Is Involved in Mitosome-Endosome Contact” (mBio, 2022).

Substrate in the data set: Nc1ncnc2c1ncn2[C@@H]1O[C@H](COP(=O)(O)OP(=O)(O)OP(=O)(O)O)[C@@H](O)[C@H]1O
The data set can be described thus: coupled fluorescent ADP assay (ADP-hexokinase/G6PDH/diaphorase/resazurin). It counts as biochemical, Entamoeba histolytica. As to conditions: MgCl2, pH 7.5, 37°C, 12.5-2,500 μM ATP. (Resazurin is reduced to fluorescent resorufin, in cell work by metabolically active cells.)

B1: His-EHD1 (Entamoeba histolytica HM-1:IMSS) (protein)
chain: MFGKKKQKPQMDTSYVSVIDGVKKIYDEKIKKLEADYKYDYLVSPLMRQADFEAKPMVLFLGQYSTGKTTFINYLLNYDYPGSHIGPEPTTDGFMAIMHGPNSTNIPGNTLCVQSDKPFTSLSKFGNEFMAKFNGSFCNLPLLEHLTFIDSPGVLSGEKQRIGRSYDFNEVVRWFAERADMIVLVFDAHKLDISDEFKGVIEAVKKHSEKMRLVLNKADSIDSQQLMRVYGALMWSLGKVMQTPECLRVYVSSFWDQPFKESLFTGLFEKERDDLMYDLHALPKQATVRKVNELCKRARLAKANAYITSYLREQMPTFGKDKKKAELLKDLNTVFNTVMKRYNLAAGDFPPIDVYKDRLQNCDFSKFPKLDMRVINAVDDALGTQIPLLLKKFPMEDDLSTHTNPFEVASNFEKCCITLDVSEDEMNSYQKEFDKLPKNEVGKVLGKDCFAPLMASGADKKDLQKIWSIADSGKEGALNAHQYILAKALVRTLLQSGGYPDNLPPVE
notes: full length (ORF primers start to stop), N-terminal His tag (pColdI), tag kept; E. coli BL21, Ni-NTA; native mass 58 kDa
In general, Km refers to the substrate concentration at which the rate is half of its maximum. In the case of B1, the Km was determined as 94.91 ± 16.63 µM.
